Article PMC9834252 (2023)

Molecular target: UbcH7-Ub (Homo sapiens, UniProt P68036)
Assay: ITC

UbcH7-Ub, sequence (P68036 whole entry): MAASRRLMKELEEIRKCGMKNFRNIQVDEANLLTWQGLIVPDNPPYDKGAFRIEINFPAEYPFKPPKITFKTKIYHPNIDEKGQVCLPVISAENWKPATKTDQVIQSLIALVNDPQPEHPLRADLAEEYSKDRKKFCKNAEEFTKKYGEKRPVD

B1: HOIL-1 (protein)
chain: MDEKTKKAEEMALSLTRAVAGGDEQVAMKCAIWLAEQRVPLSVQLKPEVSPTQDIRLWVSVEDAQMHTVTIWLTVRPDMTVASLKDMVFLDYGFPPVLQQWVIGQRLARDQETLHSHGVRQNGDSAYLYLLSARNTSLNPQELQRERQLRMLEDLGFKDLTLQPRGPLEPGPPKPGVPQEPGRGQPDAVPEPPPVGWQCPGCTFINKPTRPGCEMCCRARPEAYQVPASYQPDEEERARLAGEEEALRQYQQRKQQQQEGNYLQHVQLDQRSLVLNTEPAECPVCYSVLAPGEAVVLRECLHTFCRECLQGTIRNSQEAEVSCPFIDNTYSCSGKLLEREIKALLTPEDYQRFLDLGISIAENRSAFSYHCKTPDCKGWCFFEDDVNEFTCPVCFHVNCLLCKAIHEQMNCKEYQEDLALRAQNDVAARQTTEMLKVMLQQGEAMRCPQCQIVVQKKDGCDWIRCTVCHTEICWVTKGPRWGPGGPGDTSGGCRCRVNGIPCHPSCQNCH
Question: B1 was tested. Which Kd did it give?
Answer: 5.3 µM
